Experiments:
[1] = system: T1, YbdO (Escherichia coli K1 (RS218?)), ORF:f8d494c4; test: EMSA; conditions: 10 mM Tris pH 7.5, 1 mM EDTA, 100 mM KCl, 0.1 mM DTT, 5% glycerol, 0.01 mg/mL BSA; […]
T1 sequence: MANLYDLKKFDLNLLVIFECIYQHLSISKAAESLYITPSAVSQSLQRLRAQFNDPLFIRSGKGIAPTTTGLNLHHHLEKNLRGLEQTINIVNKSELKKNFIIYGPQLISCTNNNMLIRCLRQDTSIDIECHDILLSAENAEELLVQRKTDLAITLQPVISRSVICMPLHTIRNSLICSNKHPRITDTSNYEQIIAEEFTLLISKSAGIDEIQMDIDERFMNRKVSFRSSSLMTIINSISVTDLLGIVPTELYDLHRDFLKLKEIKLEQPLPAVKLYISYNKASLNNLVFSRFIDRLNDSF

[2] = target: T2, H-NS (Escherichia coli K1 (RS218?)) (UniProt P0ACF8); test: EMSA; conditions: 10 mM Tris pH 7.5, 1 mM EDTA, 100 mM KCl, 0.1 mM DTT, 5% glycerol, 0.01 mg/mL BSA
T2 sequence: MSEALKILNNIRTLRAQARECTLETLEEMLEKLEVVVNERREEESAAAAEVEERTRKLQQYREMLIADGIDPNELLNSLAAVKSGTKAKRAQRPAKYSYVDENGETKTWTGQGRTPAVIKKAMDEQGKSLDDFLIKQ

| Sequence | binding [1] | binding ([2]; 20 ng DNA in 20 uL, 25 C, 30 min, native 8% PAGE in 0.5x TBE, GelRed stain) | binding ([2]; […]) |
| --- | --- | --- | --- |
| TTTCCTGAGAAATTAACTCTGCATTCTAAAACGGCCAGTTTTCTGAAATTACCAGAAGACCGAATACATTCATGCCTGAAGAATGGATTAGAAGAAACGAGACGGAAATAGATCTATTTATCCCTGCGGAAATAATTTCTGCTGAAATTTTTTTGCGGCTATTAAAAAGGTCAAACCGTCTGAGTAAATTTTATCCAGTTACAAACAAGTATTACCTCCAGTGTATTGGTAGCTGTTAAGCCAAGGGCGGTAGCGTACCTGAAGAGATTAGGATCACATCATCAAATGG (double strand) [PkpsM] | binds |  |  |
| GCGGCCCCAGGCCGAGCCAGTTTACCCGCTCTGAGACCTGCGCCAGCTGGCAGGTCAGGCCAATCCGCGCCGGATGCGGTGTATCGCTTGCCACCGCAACATCCACATTGATGACCATCTCACCGTGCCCATCAATCCGGTAGG (double strand) [lacZ fragment] | no binding | no binding |  |
| ACATACTCCGTTGTATTGTCTCTTCCATAAATCATTCACTTGATCAATAATGTTGTTGTATTTATATGTATTATGTTTTTCTGCTTAACTTTGGATTAAGATTTTCTAAAATAGCATAGCTGTCAGGTGGGTTACGAGCAATTCATGCGTTTTTAGGATGGTTGAAAAGCAGAGAGAGATTTCAACCATCGATGAATTATATTCTATTTATTCCCCATAATGATATTAAGTGTTTTCTGATCGGGTAATCCGACGGCTTGTTGCAGGGTA (double strand) [PybdO] |  |  | binds |

Source: PMC9141747
